# Laboratory results taken from publication PMC3839580 (Journal of the American Chemical Society, 2013).
# Several values for one entry are separate records, joined by “and”; a condition that tells them apart may be missing. Equal entries are not always repeated.
# What was measured:
# [1] = tested on: plasma total cholesterol; details: cited from earlier work
# [2] = Size exclusion chromatography of DMPC-based peptide nanoparticles; format: physicochemical; details: construct 300 μM, PBS, overnight, Superdex 200, standard curve of four globular proteins
# [3] = cited from earlier work
# [4] = thought: two apoA-I molecules (10 helices/molecule) reside in discoidal HDL particles; cited from earlier work
substance,measurement,setting,value
"apoA-I: Apolipoprotein A-I, the primary structural protein within HDL particles","reduction in plasma cholesterol levels, in words",[1],neither apoA-I nor rHDLs cause significant reduction
same,SEC Stokes diameter,[2],15 nm and 10 nm
same,plasma half-life in mice,[3],11 h
same,helices per particle (value in parentheses),[4],20
